B1: T220D: bx9 SEQ ID NO:1 mutant (protein)
chain: MASSRTGAGAGGRVVVFPFPFQGHFNPVMRLARALHARGLAITVFHSGALDPADYPADYRFVPVTVEADPKLLASEDIAAIVTTLNASCDAPFRARLSALLAAEGRDSVRCVFTDVSWNAVLTASSDLGVPALGMMTASAASLRDYMAYRTLIDKGYLPVKEERKEDPVPELPPYLVKDLLRVDTSDLEEFAELLARTVTAARRASGLIFNTFPLIETDDLAEIHKALSVPVFAVAPLNKLVPTATASLHGVVQADRGCLQWLDTQQPGSVLYVSFGSMAAMDPHEFVELAWGLADSKRPFVWVVRPNLIRGFESGALPDGVEDEVRGRGIVVAWAPQEEVLAHPAVGGFLTHNGWNSTVEAISEGVPMVCCPRHGDQFGNMRYVCDVWKVGTELVGEQLERGQVKAAIDRLFGTKEGEEIKERMKEFKIAAAKGIGIGVDVDETASPRTDLTDLVDLIKSF
modifications: Zea mays
B2: T220S: bx9 SEQ ID NO:1 mutant (protein)
chain: MASSRTGAGAGGRVVVFPFPFQGHFNPVMRLARALHARGLAITVFHSGALDPADYPADYRFVPVTVEADPKLLASEDIAAIVTTLNASCDAPFRARLSALLAAEGRDSVRCVFTDVSWNAVLTASSDLGVPALGMMTASAASLRDYMAYRTLIDKGYLPVKEERKEDPVPELPPYLVKDLLRVDTSDLEEFAELLARTVTAARRASGLIFNTFPLIETDSLAEIHKALSVPVFAVAPLNKLVPTATASLHGVVQADRGCLQWLDTQQPGSVLYVSFGSMAAMDPHEFVELAWGLADSKRPFVWVVRPNLIRGFESGALPDGVEDEVRGRGIVVAWAPQEEVLAHPAVGGFLTHNGWNSTVEAISEGVPMVCCPRHGDQFGNMRYVCDVWKVGTELVGEQLERGQVKAAIDRLFGTKEGEEIKERMKEFKIAAAKGIGIGVDVDETASPRTDLTDLVDLIKSF
modifications: Zea mays
B3: T220R: bx9 SEQ ID NO:1 mutant (protein)
chain: MASSRTGAGAGGRVVVFPFPFQGHFNPVMRLARALHARGLAITVFHSGALDPADYPADYRFVPVTVEADPKLLASEDIAAIVTTLNASCDAPFRARLSALLAAEGRDSVRCVFTDVSWNAVLTASSDLGVPALGMMTASAASLRDYMAYRTLIDKGYLPVKEERKEDPVPELPPYLVKDLLRVDTSDLEEFAELLARTVTAARRASGLIFNTFPLIETDRLAEIHKALSVPVFAVAPLNKLVPTATASLHGVVQADRGCLQWLDTQQPGSVLYVSFGSMAAMDPHEFVELAWGLADSKRPFVWVVRPNLIRGFESGALPDGVEDEVRGRGIVVAWAPQEEVLAHPAVGGFLTHNGWNSTVEAISEGVPMVCCPRHGDQFGNMRYVCDVWKVGTELVGEQLERGQVKAAIDRLFGTKEGEEIKERMKEFKIAAAKGIGIGVDVDETASPRTDLTDLVDLIKSF
modifications: Zea mays
B4: T220V: bx9 SEQ ID NO:1 mutant (protein)
chain: MASSRTGAGAGGRVVVFPFPFQGHFNPVMRLARALHARGLAITVFHSGALDPADYPADYRFVPVTVEADPKLLASEDIAAIVTTLNASCDAPFRARLSALLAAEGRDSVRCVFTDVSWNAVLTASSDLGVPALGMMTASAASLRDYMAYRTLIDKGYLPVKEERKEDPVPELPPYLVKDLLRVDTSDLEEFAELLARTVTAARRASGLIFNTFPLIETDVLAEIHKALSVPVFAVAPLNKLVPTATASLHGVVQADRGCLQWLDTQQPGSVLYVSFGSMAAMDPHEFVELAWGLADSKRPFVWVVRPNLIRGFESGALPDGVEDEVRGRGIVVAWAPQEEVLAHPAVGGFLTHNGWNSTVEAISEGVPMVCCPRHGDQFGNMRYVCDVWKVGTELVGEQLERGQVKAAIDRLFGTKEGEEIKERMKEFKIAAAKGIGIGVDVDETASPRTDLTDLVDLIKSF
modifications: Zea mays

Experiment: UDP luminescence plate assay of E. coli extracts, saturation mutants of SEQ ID NO: 1, herbicide V
Type: biochemical, Zea mays
Details: improvement factor relative to w/t bx9 = 1.0, rounded to nearest 0.5; extract activity basis; compound V

Molecule	Preferred amino acid substitutions and (IF) based on RLU/min/ul	Most Preferred amino acid substitutions and (IF) based on RLU/min/ul
B1	G,Q,D,V(1.0)	
B2		S,R(2.5)
B3		S,R(2.5)
B4	G,Q,D,V(1.0)	

Source: patent US20200270588A1, “GLUCOSYL TRANSFERASE POLYPEPTIDES AND METHODS OF USE” (Syngenta Participations AG, priority 2017, published 2020)
